This is an account of results in patent US20220112285A1 (UNIVERSITY OF BIRMINGHAM, published 2022).

The target in data set [1] is T1, recombinant monomeric human G6b-B (human, UniProt O95866 18-142, limits assumed).
T1 construct: also called G6b-B monomer; monomeric G6b-B
T1 sequence (looked up): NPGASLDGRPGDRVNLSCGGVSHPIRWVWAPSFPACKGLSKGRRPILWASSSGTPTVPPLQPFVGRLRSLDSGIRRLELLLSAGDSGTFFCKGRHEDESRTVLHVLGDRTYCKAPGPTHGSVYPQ
Put plainly: Fab as analyte over a G6b-B monomer channel (RU read-out; method not named), two stage reaction model.

Data set [2] has as its target T2, recombinant dimeric human G6b-B (human, UniProt O95866 18-142, limits assumed).
T2 construct: also called G6b-B dimer; dimeric G6b-B
T2 sequence (looked up): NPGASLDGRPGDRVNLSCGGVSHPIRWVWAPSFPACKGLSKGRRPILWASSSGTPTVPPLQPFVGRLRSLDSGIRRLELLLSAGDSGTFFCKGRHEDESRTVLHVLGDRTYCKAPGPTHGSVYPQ
Put plainly: Fab as analyte over a G6b-B dimer channel (RU read-out; method not named), two stage reaction model.

In data set [3] the target is T3, mouse G6b-B (mouse, UniProt D7PDD4 18-140, limits assumed).
T3 construct: construct not described
T3 sequence (looked up): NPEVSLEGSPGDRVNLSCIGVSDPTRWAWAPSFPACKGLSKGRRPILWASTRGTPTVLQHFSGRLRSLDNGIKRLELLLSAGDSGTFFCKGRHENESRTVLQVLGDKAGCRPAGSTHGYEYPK
Put plainly: plate binding assay (coated protein, HRP anti-mouse IgG, TMB, A450), FIG. 8. The method, then:
FIG. 8—illustrates that the 17-4 antibody robustly binds to recombinant monomeric and dimeric human G6b-B, but not to mouse G6b-B in an in vitro binding assay. Wells of 96-well plate were coated with the indicated proteins overnight. Following blocking, wells were incubated with the indicated anti-G6b monoclonal antibodies (10 μg/ml) or IgG control. Antibody binding was detected with HRP-conjugated anti-mouse antibody and 3,3,5,5-tetramethylbenzidine (TMB) substrate; absorbance was measured with a plate reader at 450 nm.
Wells of 96-well Nunc MaxiSorp™ plates (Thermo Scientific) were coated overnight with 50 μl of indicated proteins, diluted in PBS at a concentration of 5 μg/ml. Plates were washed three times with Tris buffered saline (TBS) containing 0.1% Tween 20 (TBS-T) and blocked for 1.5 h at 37° C. with 2% fat free milk in TBS, 0.02% Tween 20. After one washing step, wells were incubated with the indicated anti-G6b monoclonal antibodies (10 μg/ml) or IgG control, diluted in 3% BSA in TBS-T for 1.5 h at RT. After five washing steps, wells were incubated with HRP-conjugated anti-mouse IgG antibody (Sigma) for 1 h at RT at low agitation. Plates were washed seven times and signals were developed with TMB. The reaction was stopped by addition of 2 M H₂SO₄ (50 μl/well) and absorbance at 450 nm and 570 nm (background) was measured with a Versa max plate reader (Molecular Devices).

Data set [4] concerns the molecule itself. Put plainly: X-ray crystal structure; dimer believed to result from binding of the heparin oligosaccharide DP12. On the procedure: The preformed G6b-B:Fab complex at 12 mg/ml, in a buffer solution of 20 mM HEPES, 75 mM NaCl, pH 7.1 was incubated for 1 hour at 4° C. with 2 mM DP12 (Iduron Cat. No. HO12). This protein sample was then microfuged at 16,000 g, for 10 minutes at 4° C., before drops were set up using 150 nl sample and 100 nl reservoir solution. Reservoir conditions were 50 mM MES pH6.2, 10% PEG 550MME, 5% glycerol, and 50 mM CaCl₂. Crystallisation plates were incubated at 20° C. and flat plate crystals appeared within 3 days. The crystal was harvested straight out of the growth drop into liquid nitrogen. Diffraction data were collected at 100K on beamline 103 at Diamond Light Source and processed by XDS1 and Aimless2 via AutoPROC3. The crystal had the space group C2 with the cell dimensions of a=183.80, b=72.34, c=131.04, alpha=90.0°, beta=124.52°, gamma=90.0°, and gave a 97% complete dataset to 3.1 Å.

The term Kd denotes the constant that tells how readily two partners part at equilibrium.

B1: His-tagged recombinant anti-G6b-B Fab fragment of antibody 17-4 (Fab, V domains shown)
VH: EVQLQQSGAELVKPGASVKLSCTASGFNIKETYIHWVKQRPEQGLEWIGRIDPADVYGRYDPKFQGKATITADTSSNSAYLQVSSLTSEDTAVYYCARSYGSSYGIDYWGQGTSVTVSS
VL: DIQMTQTTSSLSASLGDRVTISCRASQDISNYLNWYQQKPDGTVKLLIYYTSTLHSGVPSRFSGSGSGTDYSLTISNLEQEDVATYFCQQGYTLPWTFGGGTKLEIKR
notes: also called 17-4 Fab; 17-4 Fabs
In the case of B1, the Kd in data set [1] stood at 0.126 nM; in data set [2] it was 0.262 nM.

B2: anti-G6b mouse monoclonal antibody 17-4 (antibody, mouse IgG1, kappa, V domains shown)
VH: EVQLQQSGAELVKPGASVKLSCTASGFNIKETYIHWVKQRPEQGLEWIGRIDPADVYGRYDPKFQGKATITADTSSNSAYLQVSSLTSEDTAVYYCARSYGSSYGIDYWGQGTSVTVSS
VL: DIQMTQTTSSLSASLGDRVTISCRASQDISNYLNWYQQKPDGTVKLLIYYTSTLHSGVPSRFSGSGSGTDYSLTISNLEQEDVATYFCQQGYTLPWTFGGGTKLEIKR
notes: The entries may include leader peptides, since VH CDR2 residues are numbered 69 and 71; no cleavage site is stated; also called exemplary antibody 17-4; mAb 17-4
Regarding B2, the binding result in data set [3] is “no binding (tested: 10 µg/ml)”.

B3: G6b-B ECD (18-133, [N32D, S67A, S68A, S69A, T71A]) (receptor, human, UniProt O95866 18-133, looked up)
chain: NPGASLDGRPGDRVDLSCGGVSHPIRWVWAPSFPACKGLSKGRRPILWAAAAGAPTVPPLQPFVGRLRSLDSGIRRLELLLSAGDSGTFFCKGRHEDESRTVLHVLGDRTYCKAPG
notes: Expressed in HEK293 6E cells and used for the crystal structure with the 17-4 Fab and the heparin oligosaccharide DP12; also called G6b ECD; G6b-ECD
In the case of B3, in data set [4], the binding result was “binds”.
